The source of these data is patent US20100272644A1 (UNIVERSITY OF THE SCIENCES IN PHILADELPHIA, published 2010).

This experiment addresses defatted HSA (human serum albumin) (human, UniProt P02768 25-609). As to the kind of experiment: native acrylamide gel shift, fluorescein-labeled peptide (25 pmol) with defatted HSA (100 pmol). For orientation: Mobility shift assays separate free from complexed probe on a gel.

Ends that are not written are not given here. fluorescein = fluorescein conjugated to the primary amine of the Lys side chain through an MHS ester

B1: fatty acid-conjugated faTraE peptide (peptide)
peptide: CHLDAHWK(fluorescein)G
modifications: not fully specified (residue 1)
notes: also called fatty acid-modified peptide; HOOC-(CH2)15-S-S-peptide
Consider B1, for which the binding result is listed as “binds”.
